B1: SUN domain-containing protein 2 (Homo sapiens), Q9UH99 (parent)
chain: MSRRSQRLTRYSQGDDDGSSSSGGSSVAGSQSTLFKDSPLRTLKRKSSNMKRLSPAPQLGPSSDAHTSYYSESLVHESWFPPRSSLEELHGDANWGEDLRVRRRRGTGGSESSRASGLVGRKATEDFLGSSSGYSSEDDYVGYSDVDQQSSSSRLRSAVSRAGSLLWMVATSPGRLFRLLYWWAGTTWYRLTTAASLLDVFVLTRRFSSLKTFLWFLLPLLLLTCLTYGAWYFYPYGLQTFHPALVSWWAAKDSRRPDEGWEARDSSPHFQAEQRVMSRVHSLERRLEALAAEFSSNWQKEAMRLERLELRQGAPGQGGGGGLSHEDTLALLEGLVSRREAALKEDFRRETAARIQEELSALRAEHQQDSEDLFKKIVRASQESEARIQQLKSEWQSMTQESFQESSVKELRRLEDQLAGLQQELAALALKQSSVAEEVGLLPQQIQAVRDDVESQFPAWISQFLARGGGGRVGLLQREEMQAQLRELESKILTHVAEMQGKSAREAAASLSLTLQKEGVIGVTEEQVHHIVKQALQRYSEDRIGLADYALESGGASVISTRCSETYETKTALLSLFGIPLWYHSQSPRVILQPDVHPGNCWAFQGPQGFAVVRLSARIRPTAVTLEHVPKALSPNSTISSAPKDFAIFGFDEDLQQEGTLLGKFTYDQDGEPIQTFHFQAPTMATYQVVELRILTNWGHPEYTCIYRFRVHGEPAH

Variants of: B1
Conditions: with syne2_human SYNE2, Q8WXH0

Row | effect of a mutation on the interaction | Variant
1 | disrupting interaction strength | H628A
2 | disrupting interaction strength | S641E

Variants of: B1
Conditions: with syne2_human SYNE2, Q8WXH0
Remark: another data set of the same source

Row | effect of a mutation on the interaction | Variant
3 | decreasing interaction strength | D542N
4 | decreasing interaction strength | L536D

— IntAct's records for PubMed 22632968
